The target in data set [1] is T1, nsp12 (RdRp);nsp7;nsp8 (SARS-CoV-2;SARS-CoV-2;SARS-CoV-2, UniProt P0DTD1;P0DTD1;P0DTD1 4393-5324;3860-3942;3943-4140, ||). As to the kind of experiment: EMSA; 10 mM MgCl2; broadened shifted bands. The conditions noted are these: protein: recombinant;recombinant;recombinant; tags: ;N-terminal His6 removed by TEV;; copies: 1;1;2.
Data set [2] addresses T1, nsp12 (RdRp);nsp7;nsp8. Put plainly: EMSA; 10 mM MgCl2. The conditions noted are these: protein: recombinant;recombinant;recombinant; tags: ;N-terminal His6 removed by TEV;; copies: 1;1;2; hairpin, blunt, no 5' overhang.
In data set [3] the target is T1, nsp12 (RdRp);nsp7;nsp8. Put plainly: EMSA; 2.4 uM protein. The conditions noted are these: protein: recombinant;recombinant;recombinant; tags: ;N-terminal His6 removed by TEV;; copies: 1;1;2.

Results on three molecules are retold here after article PMC9185715.

As to UUUUCAUGCUACGCGUAGUUUUCUACGCG (structured_RNA) [CoV-RNA1], in the data set with nsp12 (RdRp);nsp7;nsp8 [1], the binding result was “binds”.

Regarding CGCGUAGUUUUCUACGCG (structured_RNA) [CoV-RNA1 truncated], the binding result with nsp12 (RdRp);nsp7;nsp8 [2] is recorded as “no binding”.

Consider TTTTCATGCTACGCGTAGTTTTCTACGCG (structured_DNA) [CoV-DNA1], for which, in the data set with nsp12 (RdRp);nsp7;nsp8 [3], the binding result was “no binding”.
